# Test results as given in patent publication US6794491B1, “Polypeptides, their production and use” (Takeda Chemical Industries, Ltd., priority 1995, dated 2004).
# Entries after “also recorded” stand apart in the source; their conditions may differ. Where no end group is shown, it is not given here.
# Legend:
# [1] = target: T1, full-length receptor protein expressed CHO cells (CHO-19P2); human pituitary receptor protein (hGR3) (Homo sapiens, UniProt P49683); test: release of arachidonic acid metabolites from CHO-19P2 cells; type: cell-based; settings: amount of [3H]arachidonic acid metabolites, 10^−12 M-10^−6 M in 0.05% BSA-HBSS
# T1 construct: to construct a full-length receptor protein expression plasmid pAKKO-19P2; expressed in transfected cells; host or cells: CHO dhfr- cells transfected with pAKKO-19P2 (CHO-19P2; clone CHO-19P2-9)
# T1 sequence (P49683 1-370): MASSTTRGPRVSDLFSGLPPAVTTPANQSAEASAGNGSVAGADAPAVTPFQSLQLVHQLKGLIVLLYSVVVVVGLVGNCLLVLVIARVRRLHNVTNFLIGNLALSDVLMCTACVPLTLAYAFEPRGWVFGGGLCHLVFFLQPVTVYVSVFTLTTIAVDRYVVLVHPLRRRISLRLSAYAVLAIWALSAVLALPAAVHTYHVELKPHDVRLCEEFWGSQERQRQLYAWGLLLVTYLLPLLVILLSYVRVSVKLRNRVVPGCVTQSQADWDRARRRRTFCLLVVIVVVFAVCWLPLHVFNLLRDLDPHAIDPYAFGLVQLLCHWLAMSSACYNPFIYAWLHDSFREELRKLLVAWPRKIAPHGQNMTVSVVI
# Experimental: (§1) The full-length receptor protein-expressed CHO cells and mock CHO cells were seeded in a 24-well plate, 0.5×10^5 cells/well, and cultured for 24 hours. Then, [^3H] arachidonic acid was added at a final concentration of 0.25 μCi/well. Sixteen (16) hours after addition of [^3H] arachidonic acid, the cells were rinsed with 0.05% BSA-HBSS and the above-mentioned crude peptide fraction was added, 400 μl/well. The mixture was incubated at 37° C. for 30 minutes and a 300 μl portion of the reaction mixture (400 μl) was added to 4 ml of a scintillator and the amount of [^3H] arachidonic acid metabolite released into the reaction mixture was determined with a scintillation counter.
# The activity of the peptide (19P2-L31) synthesized in Example 21 to specifically release arachidonic acid metabolites from CHO-19P2 cells was assayed in the same manner as Example 11. The synthetic peptide was dissolved in degassed dH20 at a concentration of 10^−3M and diluted with 0.05% BSA-HBSS and the activity to promote release of arachidonic acid metabolites from CHO-19P2 cells at each concentration was assayed using the amount of [^3H]arachidonic acid metabolites as the indicator.
# The activity of the synthetic equivalent (19P2-L20) of natural peptide P-2 as synthesized in Example 23 to specifically promote release of arachidonic acid metabolites from CHO-19P2 cells was determined as in Example 11. Thus, the synthetic peptide was dissolved in degassed dH2O at a final concentration of 10^−3M and this solution was serially diluted with 0.05% BAS-HBSS. The activity to specifically promote release of arachidonic acid metabolites from CHO-19P2 cells at each concentration was assayed using the amount of [^3H]arachidonic acid metabolites as the indicator.
# [2] = target: T2, UHR-1 expressed in CHO cells (CHO-UHR1) (Rattus norvegicus, UniProt Q64121, L289V); test: release of arachidonic acid metabolites from CHO-UHR1 cells; type: cell-based; settings: CHO cells expressing rat homolog UHR1; duplicate
# T2 construct: expressed in transfected cells; host or cells: CHO dhfr- cells transfected with pAKKO-UHR-1
# T2 sequence (Q64121 1-370 L289V): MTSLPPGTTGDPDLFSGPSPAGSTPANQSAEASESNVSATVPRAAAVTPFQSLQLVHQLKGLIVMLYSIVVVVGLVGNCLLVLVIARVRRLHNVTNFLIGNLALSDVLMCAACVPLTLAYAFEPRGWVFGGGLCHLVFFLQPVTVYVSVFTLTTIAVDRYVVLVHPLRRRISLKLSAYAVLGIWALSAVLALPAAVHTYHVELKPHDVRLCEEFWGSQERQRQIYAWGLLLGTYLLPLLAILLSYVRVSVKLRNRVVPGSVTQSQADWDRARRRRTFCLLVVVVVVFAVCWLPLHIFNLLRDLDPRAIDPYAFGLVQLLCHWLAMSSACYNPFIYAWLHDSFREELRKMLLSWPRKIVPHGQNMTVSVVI
# Experimental: as §1
# Same as described in Example 11, the release activity of arachidonic acid metabolite was measured on CHO-19P2-9 and CHO-UHR1 and mock CHO.
# [3] = plasma growth hormone (GH) level in freely moving rats, GHRH-induced; type: in vivo, male Wistar rats; settings: 50 nmol into the third ventricle, 5 μg/kg GHRH 10 min later
# Experimental: Mature male Wistar rats were anesthetized with pentobarbital 50 mg/kg i.p. and, as in Example 41, a stainless-steel guide cannula AG-12 (0.4 mm in. dia., 0.5 mm out. dia., EICOM) was implanted in position with its tip situated in the upper part of the third ventricle. After the operation the rats were housed in individual cages and kept for at least 3 days for recuperation and, then, a cannula (30 cm long, 0.5 mm in. dia., 0.9 mm out. dia., Natsume Seisakusho) filled with heparin (200 U/ml)-containing saline was inserted into the right atrium from the right jugular vein under pentobarbital anesthesia. The rats were maintained overnight for complete arousal from anesthesia and then transferred to transparent acrylic cages (30 cm×30 cm×35 cm). A 1 ml tuberculin syringe with a 24-G needle (both by Termo) was connected to the cannula inserted in the atrium and 300 μl of blood was drawn. To prevent clotting, the syringe was filled with 20 μl of saline containing 200 U/ml of heparin beforehand. […] The concentrations of GH in the plasma were determined by radioimmunoassay.
# The results were expressed as a mean±S.E.M. To test for significant difference between the group treated with 19P2-L31 dissolved in PBS and the control group treated with PBS alone, Student's t-test was used. […]
substance,measurement,setting,value
"Ser-Arg-Ala-His-Gln-His-Ser-Met-Glu-Ile-Arg-Thr-Pro-Asp-Ile-Asn-Pro-Ala-Trp-Tyr-Ala-Gly-Arg-Gly-Ile-Arg-Pro-Val-Gly-Arg-Phe-NH2 (SRAHQHSMEIRTPDINPAWYAGRGIRPVGRF-NH2) [19P2-L31, synthetic ligand polypeptide]",arachidonic acid metabolite-releasing activity,[1],concentration-dependent arachidonic acid metabolite-releasing activity was detected over the range of 10^−12M-10^−6M; also recorded: found in a concentration-dependent manner
same,release activity of arachidonic acid metabolite,[2],detected same as CHO-19P2-9
same,GHRH-induced elevation of plasma GH,[3],significantly inhibited
